Test results as given in publication PMC2114693 (The Journal of Cell Biology, 1987).
“And” between values parts separate entries of the source, which are not always exact repeats. Equal values may be shown once.

B1: adducin-actin complex (complex)
chain 1: MNGDSRAAVVTSPPPTTAPHKERYFDRVDENNPEYLRERNMAPDLRQDFNMMEQKKRVSMILQSPAFCEELESMIQEQFKKGKNPTGLLALQQIADFMTTNVPNVYPAAPQGGMAALNMSLGMVTPVNDLRGSDSIAYDKGEKLLRCKLAAFYRLADLFGWSQLIYNHITTRVNSEQEHFLIVPFGLLYSEVTASSLVKINLQGDIVDRGSTNLGVNQAGFTLHSAIYAARPDVKCVVHIHTPAGAAVSAMKCGLLPISPEALSLGEVAYHDYHGILVDEEEKVLIQKNLGPKSKVLILRNHGLVSVGESVEEAFYYIHNLVVACEIQVRTLASAGGPDNLVLLNPEKYKAKSRSPGSPVGEGTGSPPKWQIGEQEFEALMRMLDNLGYRTGYPYRYPALREKSKKYSDVEVPASVTGYSFASDGDSGTCSPLRHSFQKQQREKTRWLNSGRGDEASEEGQNGSSPKSKTKWTKEDGHRTSTSAVPNLFVPLNTNPKEVQEMRNKIREQNLQDIKTAGPQSQVLCGVVMDRSLVQGELVTASKAIIEKEYQPHVIVSTTGPNPFTTLTDRELEEYRREVERKQKGSEENLDEAREQKEKSPPDQPAVPHPPPSTPIKLEEDLVPEPTTGDDSDAATFKPTLPDLSPDEPSEALGFPMLEKEEEAHRPPSPTEAPTEASPEPAPDPAPVAEEAAPSAVEEGAAADPGSDGSPGKSPSKKKKKFRTPSFLKKSKKKSDS
chain 2: MSEETVPEAASPPPPQGQPYFDRFSEDDPEYMRLRNRAADLRQDFNLMEQKKRVTMILQSPSFREELEGLIQEQMKKGNNSSNIWALRQIADFMASTSHAVFPTSSMNVSMMTPINDLHTADSLNLAKGERLMRCKISSVYRLLDLYGWAQLSDTYVTLRVSKEQDHFLISPKGVSCSEVTASSLIKVNILGEVVEKGSSCFPVDTTGFCLHSAIYAARPDVRCIIHLHTPATAAVSAMKWGLLPVSHNALLVGDMAYYDFNGEMEQEADRINLQKCLGPTCKILVLRNHGVVALGDTVEEAFYKIFHLQAACEIQVSALSSAGGVENLILLEQEKHRPHEVGSVQWAGSTFGPMQKSRLGEHEFEALMRMLDNLGYRTGYTYRHPFVQEKTKHKSEVEIPATVTAFVFEEDGAPVPALRQHAQKQQKEKTRWLNTPNTYLRVNVADEVQRSMGSPRPKTTWMKADEVEKSSSGMPIRIENPNQFVPLYTDPQEVLEMRNKIREQNRQDVKSAGPQSQLLASVIAEKSRSPSTESQLMSKGDEDTKDDSEETVPNPFSQLTDQELEEYKKEVERKKLELDGEKETAPEEPGSPAKSAPASPVQSPAKEAETKSPLVSPSKSLEEGTKKTETSKAATTEPETTQPEGVVVNGREEEQTAEEILSKGLSQMTTSADTDVDTSKDKTESVTSGPMSPEGSPSKSPSKKKKKFRTPSFLKKSKKKEKVES
chain 3: […]
B2: human erythrocyte adducin (complex)
chain 1: B1 chain 1
chain 2: B1 chain 2

What was measured:
[1] = biological target: human erythrocyte spectrin (human, UniProt P02549;P11277); assay: co-sedimentation
Chain of human erythrocyte spectrin (P02549 whole entry, chain 1 of 2): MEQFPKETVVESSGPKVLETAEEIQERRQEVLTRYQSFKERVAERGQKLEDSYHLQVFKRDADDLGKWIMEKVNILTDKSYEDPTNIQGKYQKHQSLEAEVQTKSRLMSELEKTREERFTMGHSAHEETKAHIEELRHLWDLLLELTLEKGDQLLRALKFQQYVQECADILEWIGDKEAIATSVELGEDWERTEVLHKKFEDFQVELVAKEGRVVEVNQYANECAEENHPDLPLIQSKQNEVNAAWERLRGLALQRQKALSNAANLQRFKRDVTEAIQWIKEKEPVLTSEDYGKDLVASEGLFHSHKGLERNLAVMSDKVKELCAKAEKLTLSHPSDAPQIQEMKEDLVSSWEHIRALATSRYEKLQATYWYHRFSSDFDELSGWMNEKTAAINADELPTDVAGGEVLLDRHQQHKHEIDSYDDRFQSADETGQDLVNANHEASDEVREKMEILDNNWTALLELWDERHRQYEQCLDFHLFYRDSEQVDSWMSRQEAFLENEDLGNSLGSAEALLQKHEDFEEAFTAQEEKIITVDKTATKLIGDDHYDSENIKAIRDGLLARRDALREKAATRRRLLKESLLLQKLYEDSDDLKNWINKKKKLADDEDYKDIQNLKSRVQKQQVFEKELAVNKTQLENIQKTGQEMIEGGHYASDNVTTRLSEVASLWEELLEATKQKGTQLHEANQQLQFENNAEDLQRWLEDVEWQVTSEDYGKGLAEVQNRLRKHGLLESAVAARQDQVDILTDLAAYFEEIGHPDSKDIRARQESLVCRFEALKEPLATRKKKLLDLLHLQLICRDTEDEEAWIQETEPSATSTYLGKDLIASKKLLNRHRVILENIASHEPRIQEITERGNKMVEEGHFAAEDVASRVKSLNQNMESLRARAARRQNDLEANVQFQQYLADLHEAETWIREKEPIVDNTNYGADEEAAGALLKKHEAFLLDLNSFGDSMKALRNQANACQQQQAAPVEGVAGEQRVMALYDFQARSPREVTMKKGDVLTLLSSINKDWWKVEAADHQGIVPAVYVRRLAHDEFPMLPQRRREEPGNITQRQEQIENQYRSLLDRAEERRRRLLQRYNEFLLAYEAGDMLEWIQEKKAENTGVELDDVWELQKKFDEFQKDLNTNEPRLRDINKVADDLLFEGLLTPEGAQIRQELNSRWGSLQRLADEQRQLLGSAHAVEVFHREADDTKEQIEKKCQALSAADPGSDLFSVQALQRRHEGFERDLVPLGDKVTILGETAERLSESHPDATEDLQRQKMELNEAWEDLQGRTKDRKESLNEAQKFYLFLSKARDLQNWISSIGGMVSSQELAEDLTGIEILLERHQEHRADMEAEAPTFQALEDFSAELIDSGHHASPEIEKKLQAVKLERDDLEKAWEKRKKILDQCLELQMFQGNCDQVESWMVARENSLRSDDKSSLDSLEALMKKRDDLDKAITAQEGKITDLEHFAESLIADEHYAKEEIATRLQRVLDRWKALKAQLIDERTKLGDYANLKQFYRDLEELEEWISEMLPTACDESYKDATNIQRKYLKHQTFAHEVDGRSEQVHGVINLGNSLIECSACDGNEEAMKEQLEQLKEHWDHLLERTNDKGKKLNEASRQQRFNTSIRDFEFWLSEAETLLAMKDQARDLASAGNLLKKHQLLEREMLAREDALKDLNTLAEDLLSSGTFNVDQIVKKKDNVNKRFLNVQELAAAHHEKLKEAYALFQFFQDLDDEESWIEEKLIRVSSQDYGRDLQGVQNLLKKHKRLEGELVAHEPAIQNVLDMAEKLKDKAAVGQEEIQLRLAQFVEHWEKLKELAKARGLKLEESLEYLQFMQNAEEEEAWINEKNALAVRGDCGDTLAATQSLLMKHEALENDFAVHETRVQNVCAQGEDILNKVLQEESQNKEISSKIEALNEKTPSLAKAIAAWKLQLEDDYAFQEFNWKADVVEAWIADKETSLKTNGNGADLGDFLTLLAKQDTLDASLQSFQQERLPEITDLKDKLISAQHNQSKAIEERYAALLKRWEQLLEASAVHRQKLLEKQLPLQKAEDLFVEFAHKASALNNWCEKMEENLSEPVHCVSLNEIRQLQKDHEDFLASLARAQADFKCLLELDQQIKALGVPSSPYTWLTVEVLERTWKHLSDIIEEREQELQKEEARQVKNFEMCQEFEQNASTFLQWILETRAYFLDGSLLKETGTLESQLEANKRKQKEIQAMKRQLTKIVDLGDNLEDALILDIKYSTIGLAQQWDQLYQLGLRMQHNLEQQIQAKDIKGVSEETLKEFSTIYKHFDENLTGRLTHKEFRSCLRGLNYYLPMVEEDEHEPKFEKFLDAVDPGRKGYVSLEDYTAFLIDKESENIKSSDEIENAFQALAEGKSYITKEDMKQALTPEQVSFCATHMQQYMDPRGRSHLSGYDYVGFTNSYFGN
Chain of human erythrocyte spectrin (P11277 whole entry, chain 2 of 2): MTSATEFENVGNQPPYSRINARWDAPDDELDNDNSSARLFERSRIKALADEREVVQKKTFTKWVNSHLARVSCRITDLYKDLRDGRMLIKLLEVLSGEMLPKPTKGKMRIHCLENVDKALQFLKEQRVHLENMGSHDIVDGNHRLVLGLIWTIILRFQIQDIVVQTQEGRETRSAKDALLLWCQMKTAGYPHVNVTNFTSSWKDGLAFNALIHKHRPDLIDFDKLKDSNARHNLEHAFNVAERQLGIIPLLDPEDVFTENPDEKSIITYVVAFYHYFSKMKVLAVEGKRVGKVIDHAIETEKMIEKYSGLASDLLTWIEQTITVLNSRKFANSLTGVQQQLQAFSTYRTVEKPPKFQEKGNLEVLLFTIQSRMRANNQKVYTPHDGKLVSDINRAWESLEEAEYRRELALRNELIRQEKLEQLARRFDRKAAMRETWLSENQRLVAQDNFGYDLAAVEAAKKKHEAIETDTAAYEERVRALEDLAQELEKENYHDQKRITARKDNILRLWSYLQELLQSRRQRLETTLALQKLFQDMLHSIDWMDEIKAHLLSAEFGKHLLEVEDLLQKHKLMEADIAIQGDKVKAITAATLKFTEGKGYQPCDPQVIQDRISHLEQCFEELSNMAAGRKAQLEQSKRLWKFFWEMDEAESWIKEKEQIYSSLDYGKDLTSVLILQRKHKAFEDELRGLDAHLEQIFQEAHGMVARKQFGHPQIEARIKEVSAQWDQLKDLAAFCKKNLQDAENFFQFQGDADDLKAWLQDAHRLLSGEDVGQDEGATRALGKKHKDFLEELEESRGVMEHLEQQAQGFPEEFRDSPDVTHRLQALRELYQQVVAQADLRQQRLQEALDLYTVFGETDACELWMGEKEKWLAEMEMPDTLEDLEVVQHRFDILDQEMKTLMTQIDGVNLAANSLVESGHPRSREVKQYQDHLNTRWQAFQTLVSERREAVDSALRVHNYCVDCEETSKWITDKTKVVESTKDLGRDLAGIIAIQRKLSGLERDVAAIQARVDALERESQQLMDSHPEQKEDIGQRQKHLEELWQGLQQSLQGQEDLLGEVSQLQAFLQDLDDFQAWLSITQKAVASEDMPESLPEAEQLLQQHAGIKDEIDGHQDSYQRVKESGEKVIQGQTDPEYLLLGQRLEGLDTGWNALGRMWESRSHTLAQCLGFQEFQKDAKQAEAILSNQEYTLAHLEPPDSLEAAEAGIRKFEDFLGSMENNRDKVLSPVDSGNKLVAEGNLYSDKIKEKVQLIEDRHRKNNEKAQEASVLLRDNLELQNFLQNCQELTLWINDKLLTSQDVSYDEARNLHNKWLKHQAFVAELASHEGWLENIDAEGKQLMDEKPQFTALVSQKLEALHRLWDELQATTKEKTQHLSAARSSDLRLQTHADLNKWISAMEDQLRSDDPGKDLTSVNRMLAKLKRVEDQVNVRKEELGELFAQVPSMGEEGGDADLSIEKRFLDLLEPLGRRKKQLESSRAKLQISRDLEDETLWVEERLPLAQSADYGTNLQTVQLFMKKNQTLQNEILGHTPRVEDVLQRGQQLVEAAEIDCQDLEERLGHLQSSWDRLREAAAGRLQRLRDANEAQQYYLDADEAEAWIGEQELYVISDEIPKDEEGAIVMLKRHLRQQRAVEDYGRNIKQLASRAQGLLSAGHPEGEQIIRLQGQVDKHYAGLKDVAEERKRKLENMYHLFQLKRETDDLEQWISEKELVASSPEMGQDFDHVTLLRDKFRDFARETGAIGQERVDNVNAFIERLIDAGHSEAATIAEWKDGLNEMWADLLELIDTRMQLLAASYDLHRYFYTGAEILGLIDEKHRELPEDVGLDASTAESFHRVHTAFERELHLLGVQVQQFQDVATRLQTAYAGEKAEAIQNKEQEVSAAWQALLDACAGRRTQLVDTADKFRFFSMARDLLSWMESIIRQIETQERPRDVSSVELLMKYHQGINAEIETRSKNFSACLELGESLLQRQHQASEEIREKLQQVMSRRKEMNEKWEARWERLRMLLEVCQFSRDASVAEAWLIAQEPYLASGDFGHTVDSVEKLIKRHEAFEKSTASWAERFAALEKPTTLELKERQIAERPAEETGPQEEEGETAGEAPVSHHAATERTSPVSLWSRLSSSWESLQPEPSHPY

[2] = biological target: chicken skeletal muscle actin (chicken, UniProt P68139 1-377); assay: co-sedimentation

| Binder | Kd [1] [nM] | Kd [2] [nM] | stoichiometry N [2] |
| --- | --- | --- | --- |
| B1 | 104 |  |  |
| B2 |  | 283 | ~0.143 M/M (adducin to actin) and 0.16 M/M (adducin to actin) |
